Test: soluble on expression in E. coli; label from the status in PepcDB or PDB records

| Sequence | soluble on expression in E. coli |
| --- | --- |
| WIRTGDGVRLRTVVWPEGAAGTVLIFSGRTEYAEKYGPAAEALRRRGFASATLDWRGQGLSDRSLRDPLVGHVDDFASYQQDVTAFVAALRAQGLPEPFHLLAHSMGGCIGLRALHEGLPVRAACFSAPMWGIRVHAALRIVAAALGALARATGLGHRYVPGTGTRSYVATAAFDTNVLTRDPEMFAWMQEQLVQAPELGLAGPSLDWLRAAFEETARLKRLPAPDLPALCIVGSAEKVVDLEEIQRRMEGWGRGELQIVPGAEHEVMMDRPEVRDAFFDAA | not soluble |
| MGSDKIHHHHHHMNELQNFNFEGNEVRTVLINDEPYFVGKDVATAIGYQNTRKAIKDHVKTKYMREERIVTPSGTQTMTVISEPGIYQLAGQSKLPTAEPFQDWIYEEVLPSIRKHGAYMTDEKIEEALLNPDTIISLATQLKNEREKVEVERNGRLIAEQRVEELQPKADYYDQILSNKGVVTVTSIAKNYGMTAPELNKLLNRLGVQYSQSGSWYLYKKYQKNGYTHTIPVPYSHRDGRPDIKPQTKWTQKGHIFIYQLLKEHGILPMIEMKDESAV | not soluble |
| MKRSLLACAMSCMMLTVSAHSDFDVRNVDSQFHVPEIGGGVGLIDQQKERQIGEKVFREIQKQMPVVHDPWLQEQYSQIFLRVLAQTSITQPVGLVIIKDPQINAFAVPGGLFALNTGLIANARNIDEVAGVMAHEVAHVTQRHYSRSQEAFKGQGLLALAGILVGAAVATTSNADVGSAVMLGTQAALMDRQLTYSRNQEREADRIGMQYMYAAGYNPQSMADFFETMQRSRVGSSFMPDFWMTHPLTTERMSEARLRANQLPKVETKLYDPNFQLLKWYTLAVSDPSSEKILENVVKQGNKEAQLALGAYYVGQGDFVKAQKQLDDIKSQFNENTLYCLIQTNIYLGQNELDQAYSSIVNIQRAMPESRALAYKLAEVMILQGKAGDTLQLIQPFVNRNPRDLEGWQLMQQASSIDRISPVQTVNTLRYRAEVQFWSGNEENAIKSLLHAQRLAKGNESLSARIDSRLKQMQSDYTMKI | not soluble |
| MNSGNMQDTLDLEKKLRGYLFGTACADALGRPVEHLTLKQIKEKYGEKGILELPPNSSWTDDTQLMLVLARGLLHGAEFELPELMKHIAGELVLWLKEPDLGAGATTKGAALSLKDGIHWSESGLNSKTCGSLMRVGILGFIFSNDPDKLIEAASLSGRITHNHPTADAASVAGAYAVKLALDGIAPEDMFLPLLRVTEGISDEFTEALKHSYELAHSNLSDEEALQKLGQGWYADETFALAYFCILRYPDNYKKAVQTGVNITGDSDSVGSVAGGILGARLGIEAVPVSWVESLKEKEIIEEMVEPLIEKYLEVSENKHQVSEDGFGAMAGDPLEHHHHHH | soluble |
| MGNEEEKMNADIFSYEGEGIQCVYDNKNWVMCIKNWKPNNDIENIRYLEVHHATDEQFVLLKGKAVLLAAVKADGACRIDVIPMEPYKVYNIPQGIWFNTITQKDTKLVYVQDAATTAENSEYCDMTQEELNEVKEKASACLD | not soluble |
| MSLSKFAERLQTVANKPEVFQKFSRGLERESLRYTPEGALTQTPHPKALGAALTHRWITTDFAESLLEFITPVSHEVDTLLAQMSDIHHFAQTKLGDEKLWPLSMPCYVGSEEGIVLAQYGSSNTGKMKTLYREGLKRRYGSLMQIISGVHFNFSFPESFWDALFGEQEESARQASKSAAYFGVIRNYYRFGWLIPYLFGASPALCSSFLQGRKTDLPFESIGKTLYLPYATSLRLSDLGYTNSAQSVLQIGFNSIEQYLQGLNEAIRTPSAEFAKLGVKVEGEYRQLNSNVLQIENELYAPIRPKRVTQSGERPSQALARAGVEYIEVRSLDVNPFSPIGINEDQVRFLDLFLAWTALSDSDPMDGCELACWRDNWRKVVLEGRKPGLELQIGCHGEVLTLQAWAKRVFADLRVIAETMDAALGGDAYQAVCAKLETWIENPELTLSAQILAEIKQHGGLGKTGCALGNEYRAVNLQHQYQFYSQDEMEQEVRRSTQAQADIEAKETLNFDAYLTQYFAYLQAVSEGGSHHHHHH | soluble |
| MAHHHHHHMSTRRLMHTMIRVGDLDRSIKFYTEALGMRLLRKWDCPEDKFTLVFLGYGTESETAVLELTYNYGQSEYKHGDAYGHIAIGVEDVNEEIARLKKMNVPIDYESEDGFMAFIVDPDGYYIELLNTERMLEKSREQMNEQGTA | soluble |
| GPGSMAGAADPRDEDAKAVNAVLRLPEDDFYAVLGLGEAREDATERDIKNAFRRLSKKYHPDVATGDQDSYRLVYQRVQRAYEVLGDRRKRKIYDILGIDGVTRLEKPQQQQQMNPFFAFFGVGQQADAERGKDMVLLMVVPLEDIYRGAAHTSRFAKRKICRACKGTGARSGEDVVKCPHCQGRGRLAQRVQIAPGFVQQVEQVCPHCQGKGTHVAHMCPVCRGKMVLPGEAVLSVDIEEGLPEGHVLTYELEADQAPGQVPGDVLLTVISAPHPVFHRSGNDLYANVSITLKEALLGFKKTLAHLDGHNVELHWDGVMQNTQQVRIAGEGMPRHHVPSERGDLYITYNVLLPEALTAEQRALFQEHFA | not soluble |
| MAYGVMSWWDYGHYIETLGHRMPNANPFQAGIGGRRGSINETNVPGAAPFLTAQSEEEATEVLESIHPDPEKSGARYIMSDERMAVDIFMAMPEWTLDTEGYMQPYWTGDGYQYLPSKRYFDSMESRLHFLDGNGLKQYRLVYETWAYQTQEAGYKQVYNFLYGSSIPEVDSGYVKIFEYVKGAKITGTVSPNETVNINTTILTGQGRTFEYSQLEHHHHHH | not soluble |
| MGHERDWSLVQVALTDITARKKAEAYLEYLGKHDVLTKLHNRAFYSDELNRLERSALRPVSAIVIDLNGLKEANDKLGHDAGDALLRRVGEVLNGVVTAPNHAARIGGDEFAILLPGADKQVAAAMVDTVYELLKINNQFYSSAPLSLSLGVATTEAGETMESLVRRADMNMYEQKNAYYAALRNRSADNNDTTKGLEHHHHHH | not soluble |
| SNAMLNTLIVGASGYAGAELVTYVNRHPHMNITALTVSAQSNDAGKLISDLHPQLKGIVELPLQPMSDISEFSPGVDVVFLATAHEVSHDLAPQFLEAGCVVFDLSGAFRVNDATFYEKYYGFTHQYPELLEQAAYGLAEWCGNKLKEANLIAVPGCYPTAAQLALKPLIDADLLDLNQWPVINATSGVSGAGRKAAISNSFCEVSLQPYGVFTHRHQPEIATHLGADVIFTPHLGNFPRGILETITCRLKSGVTQAQVAQALQQAYAHKPLVRLYDKGVPALKNVVGLPFCDIGFAVQGEHLIIVATEDNLLKGAAAQAVQCANIRFGYAETQSLI | soluble |
| MGSDKIHHHHHHEEQKVCHMDDECVEVGQWQLGLALGYGERSNPVRDYDDIPIYLAPTLAYYGDRWFFDNGNLGYTLADEELFSVNLTTSFSSDSAYFYRWDPSNIFISGTSQLSSTPSAFTSRFQAFGAEPEPVFNELEDRKFTLLGGAEAFIYTPMGIINLALAHDLFDVHSGMEAKVKWLYNLSWTDWKFEFAAVANWKSEEIINYYYGVRPSENTYWSERYRAGSGTNLGLELTTQYIMSEHWELLFLVRYTDLADEITASPLVTESYTNTYFIGTAYRF | not soluble |
| MSLEQLNERTVLEYVEKTDLRKSILGDGKLSAQIISEGNVNLIFRICNIENGNSVILKQALPYAWRYPDFKMPVDRQRIEYETLSIESQYAPDYVPKIYFYDNKSHVLVIEDLKELKVMREALIDGEIFPKVAEHIGIFMAKTLFYTSDLYLSSGKKKEMVINFSNPVLCKVQEDLVFTQPYIDHPNNKWSKPLDEIVKKIHQDDKIRGEIFYFKELYMTKSQALIHNDLHTGSIMLNEKTTKVIDPEFAFYGPMAHDIGTYFANLAIAYAAQEAHRVEPGTRNVYREWIAESFEETWNVFQQRFLNAWEKDSNGEWPSESYRENYMLRLLKESAGFGAAEIFRRTIGMAHVHDFWTIKDENIRAKSESIALYIAINWINMWKDVEKIQDLSQVMKNSKPLEGHHHHHH | soluble |
| MASRLFGVKCHNTDSEPLKNEDLLKNLLTMGVDIDMARKRQPGVFHRMITNEQDLKMFLLSKGASKEVIASIISRYPRAITRTPENLSKRWDLWRKIVTSDLEIVNILERSPESFFRSNNNLNLENNIKFLYSVGLTRKCLCRLLTNAPRTFSNSLDLNKQMVEFLQAAGLSLGHNDPADFVRKIIFKNPFILIQSTKRVKANIEFLRSTFNLNSEELLVLICGPGAEILDLSNDYARRSYANIKEKLFSLGCTEEEVQKFVLSYPDVIFLAEKKFNDKIDCLMEENISISQIIENPRVLDSSISTLKSRIKELVNAGCNLSTLNITLLSWSKKRYEAKLKKLSRFAHHHHHH | soluble |
| MWIGMRDKWKGVGKVTQQEIIESLLQFINQETSTEEEFNEHALMLFAYQYENNLPYRTYCMQKGKTARTVKTWRDIPAVPINAFKELTLSCVSPEQAERVFMTSGTTRGVRGKHYHPTLSVYDHSMIVNFRKRFMKERDKIKMGILFPTEEHMPNSSLAHYLALAVNVFGTEDSHYLVDRDGLNMDRLLAELEQAEQSGEPYALLGASFSFVHVFEELAKRGKTFRLPEGSRILDTGGFKNQSREMDLDEFYDTLSAYLGVPRRECINMYGMTELSTQFYDDGNETVPSVKSGPHWIRTRVIHPLTGEEMPKGKRGVLVHCDLGNFNSVTTILTEDMGVETDGGFLLLGRVQGAEAKGCSMAVEEFIRAAKGTSELEHHHHHH | not soluble |
| MSLKQPTSTTVTRTDYLKHKVKVPKHPKRIVASYLEDDLVALGIKPVVQWSVKNGSGTQAYLKEQLKGVPLIDYSLPYEAVTKAKPDLILIGTSSAVANGKYAQYNKIAPTYVVKNGTTVTWRQTFLDVAKVVNRQAKAKKVLAKYDKQVQTTRQALKKSGQHKVAVLWVTNNTAYMVNDNSASGALLYQDLQLGEPSLVKQVSKSATADWSAVSLEKLAKLDADDIFLVNSQKSASLFKDPLWKNIKAVKNNHLYQYGDSSSWQYSGPIAYSQMIDMVKTDLLKEGHHHHHH | soluble |
| MSVNNIDQLLGELKSAAALASGKQAPAAQQTPQVDFSDVLKSTIEQVNSAQQTSEEMQKQFQLGDNKEVNLQDVMMSLQKASLSFQTMVQARNKLVSAYQEIMNTQV | not soluble |
| MMRITGKHCLRVAILSIQRSGMIHPRNTNGSKAKNVMVADGCVIEGTVENSILSRGVKIGKNAKVKNCILLQDTVIEDGANLEYVITDKNVRVSRNRSLTGNDSFQVYVAKGQTV | not soluble |
| TVTSASDQTTTFIQTISPTAIEISKTYDLYASVLLAQAILESSSGQSDLSKAPNYNLFGIKGEYKGKSVQMPTLEDDGKGNMTQIQAPFRAYPNYSASLYDYAELVSSQKYASVWKSNTSSYKDATAALTGLYATDTAYASKLNQIIETYSL | not soluble |
| MDMERNRLYFFYKRDDKLIERVKPLIELAERGPFVVVDDYREANIIVSIGDDGAFLQAVRQTGFLPDRLYVGVSVLPARGFYCDFHIDDIDHMVEAAKNWKLEVRRYPIIEVTIDGAASFFCLNECSIRSQIIKTMAIDVFIDDLHFETFRGDGIIVSTPTGSTGYNKSVHGAVVDPLLPCFQVSELASLNSNRYRTLGSPFILSGSRTLTLKMSEETSHFPIIGLDNEALSIQHIERIDIRLSDRVVKTVRLKDNSFWDKVKRVFL | not soluble |
| MGSDKIHHHHHHMIDLSLLPPPDVVESVDFEELYQETLGIFREFMKDQWTAALESDPVVKLMEVMAYREMLTRARVNAAAKASLLAFAKGNDLVNRAADYGVEKLVIRPADPDAVPPVEAVMEGDEALRYRTRLSLEALSVAGSSGAYEYHGLSASAELTNVSVDSPRFVEAELTPEVRAQLPAGAIVVVCDYDAGLANPLPGDVSLAILPSLSSTTPVAQLVAKVKAALSAEEVRPITDRPRVAAGVPTEFKVEAELQIEEGPDPDVVKATARAGLNAAIAEARRLQGQLPLSAIYAALHVTGIRSVTLKHPAAGVVCDKRHYPSCTSVTLTSKVVT | not soluble |

From the DeepSol protein solubility set
